From US20230137139A1, “BIOSYNTHESIS OF CANNABINOIDS AND C[…]” (priority 2020, published 2023)
Residue numbers refer to the chain shown, from its start.

Assays:
[1] = system: CBCA, THCA, and CBDA production; assay: In vivo TS activity assay, Example 2 protein engineering of A. niger CBCAS, cultures fed olivetolic acid; format: cell-based, S. cerevisiae; settings: for average CBCA titer compared with the A. niger positive control / Mean CBCA / Mean CBDA / Mean THCA: secondary screen; for Mean CBCA / Mean CBDA / Mean THCA: olivetolic acid (Table 8); for % CBCA / % CBDA / % THCA: share of terminal cannabinoid product profile
Method in brief: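 CBCA, THCA and CBDA were measured by LC-MS in methanol extracts of yeast cultures expressing mutant A. niger CBCAS. Cultures were induced at 20 °C with galactose and fed 1 mM olivetolic acid daily for 4 days, then buffered with 100 mM sodium citrate pH 5.5. Secondary screen: quadruplicates fed 1 mM olivetolic or divaric acid.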

[2] = system: CBCVA, THCVA, and CBDVA production; assay: In vivo TS activity assay, Example 2 protein engineering of A. niger CBCAS, cultures fed divaric acid; format: cell-based, S. cerevisiae; settings: for Mean CBCVA / Mean CBDVA / Mean THCVA: S. cerevisiae strains expressing A. niger CBCAS mutants; for Mean CBCVA / Mean CBDVA / Mean THCVA / average CBCVA titer compared with the A. niger positive control: secondary screen; for Mean CBCVA / Mean CBDVA / Mean THCVA / % CBCVA / % CBDVA / % THCVA: fed divaric acid; for % CBCVA / % CBDVA / % THCVA: share of terminal cannabinoid product profile
Method in brief: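 Quantification by LC-MS of methanol-extracted production cultures, strains in quadruplicate. Yeast carrying mutant A. niger CBCAS (MFalpha2 N-terminal and HDEL C-terminal signal peptides) were induced 4 days at 20 °C in YEP+4% galactose fed 1 mM divaric acid, re-dosed every 24 h with 2% galactose and 1 mM divaric acid, after 2 days of dextrose preculture at 30 °C; 100 mM citrate pH 5.5 was then added for 2 more days.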

B1: t865744 (protein)
chain: MGNTTSIAGRDCLISALGGNSALAVFPNELLWTADVHEYNLNLPVTPAAITYPETAAQIAGVVKCASDYDYKVQARSGGHSFGNYGLGGADGAVVVDMKHFTQFSMDDETYEAVIGPGTTLNDVDIELYNNGKRAMAHGVCPTIKTGGHFTIGGLGPTARQWGLALDHVEEVEVVLANSSIVRASNTQNQDVFFAVKGAAANFGIVTEFKVRTEPAPGLAVQYSYTFNLGSTAEKAQFVKDWQSFISAKNLTRQFYNNMFIFDGDIILEGLFFGSKEQYDALGLEDHFAPKNPGNILVLTDWLGMVGHALEDTILKLVGNTPTWFYAKSLGFRQDTLIPSAGIDEFFEYIANHTAGTPAWFVTLSLEGGAINDVAEDATAYAHRDVLFWVQLFMVNPVGPISDTTYEFTDGLYDVLARAVPESVGHAYLGCPDPRMEDAQQKYWRTNLPRLQELKEELDPKNTFHHPQGVMPA
- average CBCA titer compared with the A. niger positive control [1]: higher
- Mean CBCA [1]: 44305.26 µg/L
- Mean CBDA [1]: 7187.94 µg/L
- Mean THCA [1]: 2369.76 µg/L
- % CBCA [1]: 82.26%
- % CBDA [1]: 13.34%
- % THCA [1]: 4.40%
- Mean CBCVA [2]: 3752.20 µg/L
- Mean CBDVA [2]: 0.00 µg/L
- Mean THCVA [2]: 2162.61 µg/L
- average CBCVA titer compared with the A. niger positive control [2]: higher
- % CBCVA [2]: 63.44%
- % CBDVA [2]: 0.00%
- % THCVA [2]: 36.56%

B2: t865726 (protein)
chain: B1 chain with T33D, N257S, F260V
- average CBCA titer compared with the A. niger positive control [1]: higher
- Mean CBCA [1]: 41981.73 µg/L
- Mean CBDA [1]: 9985.90 µg/L
- Mean THCA [1]: 2186.01 µg/L
- % CBCA [1]: 77.52%
- % CBDA [1]: 18.44%
- % THCA [1]: 4.04%
- Mean CBCVA [2]: 3644.48 µg/L
- Mean CBDVA [2]: 0.00 µg/L
- Mean THCVA [2]: 1740.51 µg/L
- average CBCVA titer compared with the A. niger positive control [2]: higher
- % CBCVA [2]: 67.68%
- % CBDVA [2]: 0.00%
- % THCVA [2]: 32.32%

B3: t865717 (protein)
chain: B1 chain with E112V, N122S, F260V
- average CBCA titer compared with the A. niger positive control [1]: higher
- Mean CBCA [1]: 44204.43 µg/L
- Mean CBDA [1]: 9698.33 µg/L
- Mean THCA [1]: 2648.36 µg/L
- % CBCA [1]: 78.17%
- % CBDA [1]: 17.15%
- % THCA [1]: 4.68%
- Mean CBCVA [2]: 3668.51 µg/L
- Mean CBDVA [2]: 0.00 µg/L
- Mean THCVA [2]: 1721.38 µg/L
- average CBCVA titer compared with the A. niger positive control [2]: higher
- % CBCVA [2]: 68.06%
- % CBDVA [2]: 0.00%
- % THCVA [2]: 31.94%

B4: t865723 (protein)
chain: B1 chain with Y129W, F260V
- Mean CBCA [1]: 22893.08 µg/L
- Mean CBDA [1]: 7334.92 µg/L
- Mean THCA [1]: 1788.74 µg/L
- % CBCA [1]: 71.50%
- % CBDA [1]: 22.91%
- % THCA [1]: 5.59%
- Mean CBCVA [2]: 4223.36 µg/L
- Mean CBDVA [2]: 0.00 µg/L
- Mean THCVA [2]: 2125.21 µg/L
- average CBCVA titer compared with the A. niger positive control [2]: higher
- % CBCVA [2]: 66.52%
- % CBDVA [2]: 0.00%
- % THCVA [2]: 33.48%

B5: t865720 (protein)
chain: B1 chain with N122G, I126K, F260V
- Mean CBCA [1]: 27895.13 µg/L
- Mean CBDA [1]: 7663.58 µg/L
- Mean THCA [1]: 1543.57 µg/L
- % CBCA [1]: 75.18%
- % CBDA [1]: 20.66%
- % THCA [1]: 4.16%
- Mean CBCVA [2]: 4276.65 µg/L
- Mean CBDVA [2]: 0.00 µg/L
- Mean THCVA [2]: 2090.51 µg/L
- average CBCVA titer compared with the A. niger positive control [2]: higher
- % CBCVA [2]: 67.17%
- % CBDVA [2]: 0.00%
- % THCVA [2]: 32.83%

B6: t865741 (protein)
chain: B1 chain with Y256M, F260V
- Mean CBCA [1]: 15982.40 µg/L
- Mean CBDA [1]: 4419.64 µg/L
- Mean THCA [1]: 957.33 µg/L
- % CBCA [1]: 74.83%
- % CBDA [1]: 20.69%
- % THCA [1]: 4.48%
- Mean CBCVA [2]: 4388.54 µg/L
- Mean CBDVA [2]: 0.00 µg/L
- Mean THCVA [2]: 2033.77 µg/L
- average CBCVA titer compared with the A. niger positive control [2]: higher
- % CBCVA [2]: 68.33%
- % CBDVA [2]: 0.00%
- % THCVA [2]: 31.67%

B7: t878465 (protein)
chain: B1 chain with N202S, F260V, P472A
modifications: expressed in S. cerevisiae strain
- average CBCA titer compared with the A. niger positive control [1]: higher
- Mean CBCA [1]: 41094.07 µg/L
- Mean CBDA [1]: 9826.17 µg/L
- Mean THCA [1]: 2184.77 µg/L
- % CBCA [1]: 77.38%
- % CBDA [1]: 18.50%
- % THCA [1]: 4.11%
- Mean CBCVA [2]: 4314.23 µg/L
- Mean CBDVA [2]: 0.00 µg/L
- Mean THCVA [2]: 2144.09 µg/L
- average CBCVA titer compared with the A. niger positive control [2]: higher
- % CBCVA [2]: 66.80%
- % CBDVA [2]: 0.00%
- % THCVA [2]: 33.20%

B8: t865694 (protein)
chain: B1 chain with A57E, I126A, F260V
- average CBCA titer compared with the A. niger positive control [1]: higher
- Mean CBCA [1]: 43506.37 µg/L
- Mean CBDA [1]: 9126.46 µg/L
- Mean THCA [1]: 2579.57 µg/L
- % CBCA [1]: 78.80%
- % CBDA [1]: 16.53%
- % THCA [1]: 4.67%
- Mean CBCVA [2]: 3069.69 µg/L
- Mean CBDVA [2]: 0.00 µg/L
- Mean THCVA [2]: 1647.98 µg/L
- % CBCVA [2]: 65.07%
- % CBDVA [2]: 0.00%
- % THCVA [2]: 34.93%

B9: t865751 (protein)
chain: B1 chain with F260V, S423A
modifications: expressed in S. cerevisiae strain
- Mean CBCA [1]: 31396.25 µg/L
- Mean CBDA [1]: 8775.99 µg/L
- Mean THCA [1]: 1709.83 µg/L
- % CBCA [1]: 74.96%
- % CBDA [1]: 20.95%
- % THCA [1]: 4.08%
- Mean CBCVA [2]: 3998.68 µg/L
- Mean CBDVA [2]: 0.00 µg/L
- Mean THCVA [2]: 1894.39 µg/L
- average CBCVA titer compared with the A. niger positive control [2]: higher
- % CBCVA [2]: 67.85%
- % CBDVA [2]: 0.00%
- % THCVA [2]: 32.15%

B10: t865736 (protein)
chain: B1 chain with F260V, N295S
- Mean CBCA [1]: 24918.92 µg/L
- Mean CBDA [1]: 6931.79 µg/L
- Mean THCA [1]: 1690.72 µg/L
- % CBCA [1]: 74.29%
- % CBDA [1]: 20.67%
- % THCA [1]: 5.04%
- Mean CBCVA [2]: 3847.79 µg/L
- Mean CBDVA [2]: 0.00 µg/L
- Mean THCVA [2]: 1963.40 µg/L
- average CBCVA titer compared with the A. niger positive control [2]: higher
- % CBCVA [2]: 66.21%
- % CBDVA [2]: 0.00%
- % THCVA [2]: 33.79%
